Measured values as given in the nanobody polyreactivity screen of Harvey et al. (2022).

Test: yeast display, Sf9 membrane polyspecificity reagent, FACS + sequencing; frameworks hold sequencing errors
How it was run: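 Nanobodies came from a synthetic yeast display library in Saccharomyces cerevisiae BJ5465, induced with galactose for 36–48 hours and stained for 1 hour at 4 °C with 10% biotinylated, detergent-solubilized Sf9 membrane reagent. Cells were enriched on streptavidin microbeads and then FACS-sorted, with low and high (top ~1%) gates set on anti-HA fluorescence for expression and streptavidin fluorescence for reagent binding. Each polyreactivity label reflects the gate a clone came from. Genes were amplified by colony PCR, sequenced by MiSeq 2 × 250 and filtered by CDR length.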

Sequence | polyreactivity (PSR sort gate)
QVQLVDSGGGLVQAGGSLRLSCAASGRTFRYYDMGWYRPAPGEVREFVAAITWRGGSTYYADSVKGRFTISRDNAKNTVYSQMNSLKPEDTAVYYCATDSLRLYGGKRDLYYWGQGTQVTVSS | low polyreactivity
QVQLVESGGGLVQAGGSLRLSCAASGSTFDIYAMGWYRQAPGKERELVAAISVSDVDTYYADSVKGRFTISRDNAKNTVYLQMNSLKPEDTAVYYCNAERFWPWDYDYWGQGTQVTVSS | high polyreactivity
QVQHVESGGGLVQAGGSLRLSCAASGSIFEDYVMGWYRQAPGKERELVADITSGGTTYYADSVKGRFTISRDNAKNTVYLQMNSLKPEDTAVYYCAAEVDWVPFLLDYWGQGTQVTVSS | low polyreactivity
QVQLVESGGGLVQAGGSLRLSCAASGRTFRDYAMGWYRQAPGKERELVAAINWSGGTTSYADSVKGRFTISRDNAKNTVYLQMNSLKPEDTAVYYCAVPYLYKYSRYDYWGQGTQVTVSS | high polyreactivity
QVQLVESGGGLVQAGGSLRLSCAASGFIFWYYAMGWYRQAPGKERELVAAITTSDGSTYYADSVKGRFTISRDNAKNTVYLQMNSLKPEDTAGYYCAADSYYVSYGYYYCGQGTQVTVSS | low polyreactivity
QVQLVESGGGLVQAGGSLRLSCAASGITFGRNTMGWYRQAPGKESELVAAIDSGGNTYADSVKGRFTISRDNAKNTVYLQMNSLKPEDTAVYYCAADNSVGEYQRVDYDYWGQGTQVTVSS | low polyreactivity
QVHLVESRGVLVQAGGSLRLSCAASGRTFGYYAMGWYRQAPGKERELVAAINGSGSRTYYADSVKGRFTISRDNAKNSVYLQMNSLKPEDSAVYYCAATYPKYQYDYWGQGTQVTVSS | high polyreactivity
QVQLVESGGGLVQAGGSLRLSCAASGSTFAVYTMGWYRQAPGKERELSTSYADSVKGRFTISRDNAKNTVYLQMNSLKPEDTAVYYCAADYDAWYDDIEYDYWGQGTQVTVSS | low polyreactivity
QVQLVESGGGLVQAGVSLRLSCAASGSFFGYYTMGWYRQAPGTERELVAAISASGGSTYYADSVKGRFTISRDNANNTVYLQLNSLKPEDTAVYYCAATSAANFPRGYYYWGQGTQVTVSS | high polyreactivity
QVQLVESGGGLVQAGGSLRSSCAASGGTFYGYAMGWYRQAPGKERELVAAISFSGGRTYYADSVKGSFTISRDNAKNTVYLQMNSLKPEDTAVYYCAALRRYPRPNIYGYWGQGTQVTVSS | low polyreactivity
QVQLVESGGGLVQSGGSLRLSCAASGSIFSYYAMGWYRQAPGKEREFVAPHSRSGGSTYYADSVKGRFTISRDNGKNTVYLQMKSLKPEDTAVYYCNAYSYSDAGDDGDYWGQGTQVTVSS | low polyreactivity
QVQLVESGGGLVQAGGSLRLSCAASGSTFYRYAMGWYRQAPGKERELVAAITRGGGNTYYADSVKGRFTISRDNAKNTVYLQMNSLKPEDTAVYYCNTDPTLRSRVGIWGFDYWGQGTQVTVSS | high polyreactivity
QVQLVESGGGLVQAGGSLRLSCAASGRILIRKAMGRSRQAPGKERELVAAINRGGGSTYYADSVKGRFTISRDNAKNTVYLQMNSLKPEDTAVYYCAADRKAGYSRVDGDYWGQGTQVTVSS | low polyreactivity
QVQLVESGGGLVQAGGSLRLSCAASGRIFARNTMGWYRQAPGKERELVAAISWGGGRTYYADSVKGRFTISRDNAKNTVYLQMNSLKPEDTAVFYCAAETLQIPRGEYWGQGTQVTVSS | low polyreactivity
QVQLEESGGGLVQAGGSLRLSCAASGRTFYRSAMGWYRPEPGKERELVAAITWSGGSTYYAVSVKGRFTTSRDNAKNTVYLQMNSLKPEDTAVYYCARRLYPYRPTAYDYWGQGTQVTVSS | low polyreactivity
QVQLVESGGGLVQAGGSLRLSCAASGRIFLRNDMGWYRQAPGKERELVAGISSDGSTYYADSVKGRFTISRDNAKNTVYLQMNSLKPEDTAVDYCARYGTDHRLGYGYWGQGTQVTVSS | low polyreactivity
QVQLVESGGGLVQAGGSLRLSGAASGRIFATNAMGWYRQAPGKETELVATITRSAGRTYYADSVKGRFTNSRDNAKNTVYLQMNSLKPEETAVYYCAASYWDTEPGYREYDYWGQGTQVTVSS | low polyreactivity
QVQLVESGGGLVQAGGSLRLSCAASGRTFGIYAMGWYRQAPGKERELVAAITWSGDSTYYADSVKGRVTISRDNAKNTVYLQMNSLKPEDTAVYYGAADYVGVTSVRYDYWGQGTQVTVSS | low polyreactivity
QVQLVESGGGLVQAGGSLRLICAASGRIFKYNAMGWDRQAPGTERELVAAISSSGGSTYYADSVKGRFTISRDNAKYTVYLLMNSLKPEDTAVYYCAARFNSGVYRYDYWGQGTQVTVSS | high polyreactivity
QVQLVESVGGLVQAGGSLRLSCAASGFTFRYYAMGSYRQAPGKERELVAAISRTGRTYYADSVKGRFTISRDNAKNTVYLQMNSLKPEDTAVYYCAADPPGYVFGKRYYWGHGTQVTVSS | high polyreactivity
QVQLVESGGGLVQAGGSLRLSCAASGSIFAYNTMGWYRQAPGKEREFVAAISWRGGSTYYADSVKGRFTISRDNAKNTVYLQMTSLKPEDTAVYYCNARYRNTFYTRRYDYWGQGTQVTVSS | high polyreactivity

Sequence | polyreactivity (PSR sort gate)
QVQLVESGGGLVQAGGSLRLSCAASGIIFQYYVMGWYRQAPGKERELVAAIDKSGGSTYYADSVKGRFTISRDNAKNTVYLQMNSLKPEDTAVYYCNRDRGWTRFYVYSTGAWLYDYWGQGTQVTVSS | low polyreactivity
QVQLVESGGGLVQAGGSLRLSCAASGSIFFDYGMGWYRQAPGKERELVATITRGTGSTYYADSVKGRFTISRDNAKNTVYLQMNSLKPEDTAVYYCAAGWHYVYRTPGFGYWGQGTQVTVSS | high polyreactivity
QVQLVESGGGLVQAGGSLRLSCAASGSIFYQNAMGWYRQAPGKEREFVAAIRSSGSSTYYADSVKGRFTISRDNAKNTVYLQMNSLKPEDTAVYYCAAPSSRGQGRNFDYWGQGTQVTVSS | high polyreactivity
QDQLVDSGGGLVQAGGSLRLSCAASGSTGTYMGWYRQAPGKERELVAAIDNICDNTYNADSVKGRFTISRDNAKNTVYLQMNSLIPEDSAVYYCAADYYVYYPWLFEYDYWGQGTQVTVSS | low polyreactivity
QVQLVESVGGLVQAGGSLRLSCAASGFIFYWYAMGWYRQAPGKERELVAAITRSGGRTYYADSVKGRFTISRDNAKNTVYLQMNSLKPEDTAVYYCNAGYWLSPYKFGYWGQGTQVTVSS | high polyreactivity
HVQHVESGGGLVQAGGSLRLSCADSGNTFSDNAMGLYRQAPGKVRELVAAISTSGGSTYYADSVKGRFTISRDNAKNTVYLQMNSLNPEDTADYYFAAQFTVLWYEYYYWVQGTQVTVSS | high polyreactivity
QVQLVESGGGLVQAGGSLRLSCAASGSTFYPYGMGWYRHAPGKERDLVAAISKRGGSTYYADSVKGRFTISRDNAKNTVYLQMNSLKPEDTAVYYCAAYGAGKFWAEHNYWGQGTQVTVSS | high polyreactivity
QVQLVESGGGLVQAGGRLRLSCAASGSIFASYALGWYRQAPGKERELVAVITRSGGSTYYADSVKGRFTISRDNAKNTVYLQMNSLKPEDTAVYYCAAQYGRTYYSRREYWGQGTQVTVSS | high polyreactivity
QVQLVESGGGLVQAGGSLRLSCAASGSTFPYYAMGWYRQAPGKERELVAAISSSGGSTYYADSVKGRFTFSRDNAKNTVYLLMNSLKPEDTAVYYCNVVKSRGLFSYDYWGQGSQVTVSS | high polyreactivity
QVQLVESGGGLVQAGGSLRLSCAASGRTLYNYTMGWYRQAPGKERELVATINFSGGSTYYADSVKGRFTISRDNAKNTVYLQMNSLKPEDTAVYYCNARGYHYAYKGAYLGDDYWGQGTQVTVSS | low polyreactivity
QVQLVESGGALVQAGGSLRLSCAASGFIFRYYAMGWYRQAPWKERELVATITGRGGSTYYADSVKGRFTISRDNAMNTVYLQMNSLKPEDTAVYYCAKRGYGRYYAYDYWGQGTQVTVSS | high polyreactivity
QVQLVESGGGLVQAGGSLRLTCAASGSTFVRYAMGWSRQAPGKERELVAAISRGGRTNYADSVKGRFTISRDNAKNTVYLQMNSLKPEDTAVYDCAKDRNIYYTYDYWGQGTQVTVSS | low polyreactivity
QVQLEESGGGLFQAGGSLRLSCAASGLNFGQNVMGWYRQAPGKERELLAAIRESGGRTYYADSVKGRFTISRDNAKNTFYIQMNSLNPEDTAVYYCRAYWRYSRYDYWGQGTQVTGSS | high polyreactivity
QVQLLESGGGLVQAGGSLRLSCAASGSIFTGNAMGWYRQAPGKERELVAAISSSGGSTYYADSVKGRFTISRDNAKNNVYLQMNSLKPEDTAVYYCAAYNYFLQYDYWGQGSQVTVSS | low polyreactivity
QVQLVESGGGLVQAGGSLRLSCAASGYTFGSYAMGWYRQAPGKERELVAAIRGSGGSTYYADSVKGRFTISRDNAKNTVYLQMNSLKPEDTAVYYCATSVRRGGRQLYNYWGQGTQVTVSS | high polyreactivity
QVQLVESGGGLVQAGGSLRLSCAASGLTFAKYAMGWYRQEPGKEREFVAAITYSGGTTYYADSVKGRFTISRDNAKNTVYLQMNSLKPEDTAVYYCNTRSTLGYYWGQGTQVTVSS | high polyreactivity
QVQLVESGGGLVQAGGSHRLSCAASGLIFNYYAMGGYRQAPGKERELVASITGGDSTNYADSVKGRFTISRDNAKNTVYLQMNSLKPEDTAVYYCAAEFYGSSYGYRTYDYYYWGQGTQVTVSS | low polyreactivity
QDQLVESGGGLVQAGGSLRLSCAASGSIFSVYVMGWYRQAPGKERELVATISSGGGTYYADSVKGRFTISRDNAKNTVYLQMNSLKPEDTAVYYCNADWDDWKGDYWGQGTQVTVSS | low polyreactivity
QVQLVESGGGLVQAGGSLRLSSAASGFIFGAYAMGWYRQAPGKERELVAANSSRGGNTYYADSVKGRFTISRDNAKNTVYLQMNSLKPEDPAVYDCNAVGYAPYLYVPPPYEYWGQGTQVTVSS | high polyreactivity
QVQLVESGGGLVQAGGSLRLSCAASGITFFRYAMGWYRQAPGKERELVAAITTSGSSTFYADSVKGRFTISRDNAKNTVYLQMNSLTPEDTAVYYCATDYERYTWVGYLVTYYYWGQGTQVTVSS | high polyreactivity
